B1: PBXIP1 (parent)
chain: LPVETLGPASRMDPESERALQAPH
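Further: lentivirally expressed fusions sorted by FACS into six bins by GFP to DsRed ratio, PSI derived from sequencing read proportions per bin multiplied by bin number.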

In this data set the parent is B1. As to the kind of experiment: protein stability index of a GFP-peptide fusion (GPS, HEK-293T) (PSI 1-6); higher = more stable. Conditions: c terminus: a fixed tail appended.
Consider LPVETLGPASRMDPASERALQAPH [E15A], for which the protein stability index came out at 4.35.

Take LPVETLGPASWMDPESERALQAPH [R11W]: the protein stability index was 3.7.

As for LPVETLGPASSMDPESERALQAPH [R11S], the protein stability index amounted to 4.01.

Consider LPVETLGPASAMDPESERALQAPH [R11A], for which the protein stability index was 4.18.

For LPVETLGPASEMDPESERALQAPH [R11E], the protein stability index stood at 4.48.

Take LPVETLGPASVMDPESERALQAPH [R11V]: the protein stability index was found to be 4.66.

Consider LPVETLGPASTMDPESERALQAPH [R11T], for which the protein stability index was 4.2.

For the variant LPVETLGPASYMDPESERALQAPH [R11Y], the protein stability index was determined as 3.67.

On to LPVETLGPASGMDPESERALQAPH [R11G], for which the protein stability index is 3.95.

Regarding LPVETLGPASCMDPESERALQAPH [R11C], the protein stability index amounted to 4.63.

For the variant LPVETLGPASQMDPESERALQAPH [R11Q], the protein stability index was 4.09.

As to LPVETLGPASIMDPESERALQAPH [R11I], the protein stability index stood at 2.99.

For LPVETLGPASFMDPESERALQAPH [R11F], the protein stability index was 3.6.

Consider LPVETLGPASMMDPESERALQAPH [R11M], for which the protein stability index is 3.96.

Consider LPVETLGPASNMDPESERALQAPH [R11N], for which the protein stability index is 4.4.

On to LPVETLGPASHMDPESERALQAPH [R11H], for which the protein stability index is 3.71.

Turning to LPVETLGPASLMDPESERALQAPH [R11L], the protein stability index worked out at 3.66.

With LPVETLGPASPMDPESERALQAPH [R11P], the protein stability index was 3.98.

Consider LPVETLGPASKMDPESERALQAPH [R11K], for which the protein stability index came out at 4.

Regarding LPVETLGPYSRMDPESERALQAPH [A9Y], the protein stability index is 4.26.

Consider LPVETLGPHSRMDPESERALQAPH [A9H], for which the protein stability index was 4.91.

For LPVETLGPKSRMDPESERALQAPH [A9K], the protein stability index stood at 4.77.

For LPVETLGPNSRMDPESERALQAPH [A9N], the protein stability index worked out at 4.63.

LPVETLGPRSRMDPESERALQAPH [A9R]: the protein stability index turned out to be 4.81.

In the case of LPVETLGPISRMDPESERALQAPH [A9I], the protein stability index came out at 4.04.

LPVETLGPGSRMDPESERALQAPH [A9G]: the protein stability index was 4.33.

Take LPVETLGPTSRMDPESERALQAPH [A9T]: the protein stability index came out at 4.51.

Consider LPVETLGPLSRMDPESERALQAPH [A9L], for which the protein stability index was determined as 3.18.

Take LPVETLGPCSRMDPESERALQAPH [A9C]: the protein stability index was determined as 3.68.

With LPVETLGPVSRMDPESERALQAPH [A9V], the protein stability index is 2.51.

Regarding LPVETLGPQSRMDPESERALQAPH [A9Q], the protein stability index was 4.59.

As for LPVETLGPDSRMDPESERALQAPH [A9D], the protein stability index turned out to be 4.54.

Regarding LPVETLGPFSRMDPESERALQAPH [A9F], the protein stability index was determined as 3.83.

As for LPVETLGPWSRMDPESERALQAPH [A9W], the protein stability index came out at 4.42.

With LPVETLGPPSRMDPESERALQAPH [A9P], the protein stability index was determined as 4.92.

Consider LPVETLGPESRMDPESERALQAPH [A9E], for which the protein stability index is 4.56.

As to LPVETLGPMSRMDPESERALQAPH [A9M], the protein stability index was 4.12.

For LPVETLGPASRMDGESERALQAPH [P14G], the protein stability index was 3.56.

With LPVETLGPASRMDTESERALQAPH [P14T], the protein stability index worked out at 4.37.

Regarding LPVETLGPASRMDLESERALQAPH [P14L], the protein stability index worked out at 3.91.

With LPVETLGPASRMDRESERALQAPH [P14R], the protein stability index turned out to be 4.19.

With LPVETLGPASRMDMESERALQAPH [P14M], the protein stability index was found to be 4.04.

On to LPVETLGPASRMDQESERALQAPH [P14Q], for which the protein stability index was found to be 4.75.

With LPVETLGPASRMDIESERALQAPH [P14I], the protein stability index turned out to be 4.22.

Turning to LPVETLGPASRMDNESERALQAPH [P14N], the protein stability index is 4.

With LPVETLGPASRMDFESERALQAPH [P14F], the protein stability index was found to be 4.32.

For the variant LPVETLGPASRMDKESERALQAPH [P14K], the protein stability index was 4.43.

Regarding LPVETLGPASRMDVESERALQAPH [P14V], the protein stability index turned out to be 4.42.

With LPVETLGPASRMDYESERALQAPH [P14Y], the protein stability index turned out to be 3.72.

As for LPVETLGPASRMDHESERALQAPH [P14H], the protein stability index stood at 3.61.

LPVETLGPASRMDEESERALQAPH [P14E]: the protein stability index came to 4.61.

As for LPVETLGPASRMDSESERALQAPH [P14S], the protein stability index was found to be 4.09.

For the variant LPVETLGPASRMDWESERALQAPH [P14W], the protein stability index amounted to 3.81.

Turning to LPVETLGPASRMDAESERALQAPH [P14A], the protein stability index was 4.62.

LPVETLGPASRMDDESERALQAPH [P14D]: the protein stability index stood at 4.44.

Consider LPVETLGPASRMDCESERALQAPH [P14C], for which the protein stability index amounted to 4.13.

LPVETLLPASRMDPESERALQAPH [G7L]: the protein stability index was 5.23.

With LPVETLDPASRMDPESERALQAPH [G7D], the protein stability index was 5.29.

Turning to LPVETLYPASRMDPESERALQAPH [G7Y], the protein stability index is 4.63.

LPVETLAPASRMDPESERALQAPH [G7A]: the protein stability index was determined as 5.51.

For LPVETLPPASRMDPESERALQAPH [G7P], the protein stability index came to 4.61.

Turning to LPVETLEPASRMDPESERALQAPH [G7E], the protein stability index amounted to 5.51.

For the variant LPVETLFPASRMDPESERALQAPH [G7F], the protein stability index came out at 4.62.

Regarding LPVETLNPASRMDPESERALQAPH [G7N], the protein stability index came to 5.24.

Turning to LPVETLKPASRMDPESERALQAPH [G7K], the protein stability index stood at 5.55.

Consider LPVETLMPASRMDPESERALQAPH [G7M], for which the protein stability index worked out at 4.03.

Consider LPVETLWPASRMDPESERALQAPH [G7W], for which the protein stability index worked out at 4.63.

With LPVETLIPASRMDPESERALQAPH [G7I], the protein stability index was found to be 4.76.

LPVETLQPASRMDPESERALQAPH [G7Q]: the protein stability index stood at 4.99.

Take LPVETLHPASRMDPESERALQAPH [G7H]: the protein stability index was 4.54.

Turning to LPVETLCPASRMDPESERALQAPH [G7C], the protein stability index was 5.

Turning to LPVETLVPASRMDPESERALQAPH [G7V], the protein stability index is 4.95.

Consider LPVETLRPASRMDPESERALQAPH [G7R], for which the protein stability index worked out at 5.12.

As for LPVETLSPASRMDPESERALQAPH [G7S], the protein stability index came to 5.42.

For the variant LPVETLTPASRMDPESERALQAPH [G7T], the protein stability index was 5.37.

LPVESLGPASRMDPESERALQAPH [T5S]: the protein stability index came to 4.68.

On to LPVEDLGPASRMDPESERALQAPH [T5D], for which the protein stability index is 5.49.

Take LPVEILGPASRMDPESERALQAPH [T5I]: the protein stability index turned out to be 4.52.

Take LPVEELGPASRMDPESERALQAPH [T5E]: the protein stability index turned out to be 5.77.

Regarding LPVEPLGPASRMDPESERALQAPH [T5P], the protein stability index was 4.95.

As for LPVELLGPASRMDPESERALQAPH [T5L], the protein stability index turned out to be 3.9.

As to LPVEQLGPASRMDPESERALQAPH [T5Q], the protein stability index turned out to be 5.52.

On to LPVEKLGPASRMDPESERALQAPH [T5K], for which the protein stability index stood at 4.38.

As to LPVEHLGPASRMDPESERALQAPH [T5H], the protein stability index worked out at 4.72.

On to LPVEFLGPASRMDPESERALQAPH [T5F], for which the protein stability index was 4.89.

On to LPVECLGPASRMDPESERALQAPH [T5C], for which the protein stability index turned out to be 4.89.

Consider LPVENLGPASRMDPESERALQAPH [T5N], for which the protein stability index stood at 5.12.

For the variant LPVEALGPASRMDPESERALQAPH [T5A], the protein stability index was 5.26.

In the case of LPVEWLGPASRMDPESERALQAPH [T5W], the protein stability index came out at 4.65.

As to LPVEGLGPASRMDPESERALQAPH [T5G], the protein stability index worked out at 5.33.

As to LPVEYLGPASRMDPESERALQAPH [T5Y], the protein stability index worked out at 4.93.

Take LPVERLGPASRMDPESERALQAPH [T5R]: the protein stability index is 4.14.

Turning to LPVEMLGPASRMDPESERALQAPH [T5M], the protein stability index was 4.41.

On to LPVEVLGPASRMDPESERALQAPH [T5V], for which the protein stability index is 4.6.

Values taken from the supplement of paper PMC10567573.
